This passage reports A490 (MAb binding of HIV in the absence of competitors) results from patent publication US20120121633A1, “HIV CD4 BINDING SITE BASED COVALENT IMMUNOGEN COMPOSITIONS” (priority 2010, published 2012).

Test [1] concerns the target gp120 on intact HIV virions (strain MN) (HIV strain MN) (UniProt P05877). The experiment in a line: MAb (7.5 µg/ml) with intact HIV virions, complexes captured on Protein G, p24 ELISA.
The target is the same in test [2]. The experiment in a line: MAb (0.8 µg/ml) with intact HIV virions, complexes captured on Protein G, p24 ELISA.
Test [3] has the same target. The experiment in a line: MAb (45 µg/ml) with intact HIV virions, complexes captured on Protein G, p24 ELISA.

Consider MAb 2G12 (antibody), for which the A490 (MAb binding of HIV in the absence of competitors) in test [1] turned out to be 0.246 A490.

For MAb 447-52D (antibody), the A490 (MAb binding of HIV in the absence of competitors) in test [2] came to 0.291 A490. The substance MAb clone b12 (antibody) displayed an A490 (MAb binding of HIV in the absence of competitors) in test [3] of 0.176 A490.
